Experiments:
human DLL3-his protein = target: T1, human DLL3-his protein (human, UniProt Q9NYJ7 27-492); assay: ELISA
T1 construct: also called human DLL3 protein; DLL3 antigen protein; not shown: His tag
T1 sequence: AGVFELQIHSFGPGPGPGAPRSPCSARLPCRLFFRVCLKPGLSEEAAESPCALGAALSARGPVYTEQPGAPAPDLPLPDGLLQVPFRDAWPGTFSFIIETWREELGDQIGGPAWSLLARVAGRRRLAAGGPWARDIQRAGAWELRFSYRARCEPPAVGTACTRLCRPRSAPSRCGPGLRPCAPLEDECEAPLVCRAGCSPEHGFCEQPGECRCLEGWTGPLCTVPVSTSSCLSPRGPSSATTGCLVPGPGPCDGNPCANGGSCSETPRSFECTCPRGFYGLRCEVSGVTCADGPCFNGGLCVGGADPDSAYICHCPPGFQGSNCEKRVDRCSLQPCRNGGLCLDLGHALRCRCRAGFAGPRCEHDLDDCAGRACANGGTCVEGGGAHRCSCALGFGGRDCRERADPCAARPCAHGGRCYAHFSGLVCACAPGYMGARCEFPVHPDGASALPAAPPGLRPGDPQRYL

[1] = target: T2, monkey DLL3 on CHO K1-cyno DLL3 cells (cynomolgus monkey); assay: FACS, CHO K1-cyno DLL3 cells
T2 construct: also called monkey DLL3 recombinant cell line
T2 chain: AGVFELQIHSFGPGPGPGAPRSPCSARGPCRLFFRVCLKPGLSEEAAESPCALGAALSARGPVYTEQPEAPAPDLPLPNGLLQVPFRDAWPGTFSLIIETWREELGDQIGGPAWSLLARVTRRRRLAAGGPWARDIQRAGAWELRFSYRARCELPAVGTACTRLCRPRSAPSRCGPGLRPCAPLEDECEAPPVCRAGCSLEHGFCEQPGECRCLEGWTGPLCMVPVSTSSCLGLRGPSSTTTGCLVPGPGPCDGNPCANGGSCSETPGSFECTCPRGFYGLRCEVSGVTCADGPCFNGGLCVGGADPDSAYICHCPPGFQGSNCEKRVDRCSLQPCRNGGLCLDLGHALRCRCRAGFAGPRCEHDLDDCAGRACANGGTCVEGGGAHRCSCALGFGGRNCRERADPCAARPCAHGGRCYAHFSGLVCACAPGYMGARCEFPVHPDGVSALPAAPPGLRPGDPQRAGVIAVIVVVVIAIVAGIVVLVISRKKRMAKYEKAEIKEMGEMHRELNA

[2] = target: T3, human DLL3 endogenously expressed on SHP77 and NCI-H82 cells (human, UniProt Q9NYJ7 27-618); assay: FACS, SHP77 and NCI-H82 cells
T3 construct: whole, on cells; cells endogenously expressing DLL3; also called SHP77 cells; SHP-77 cells
T3 sequence (looked up): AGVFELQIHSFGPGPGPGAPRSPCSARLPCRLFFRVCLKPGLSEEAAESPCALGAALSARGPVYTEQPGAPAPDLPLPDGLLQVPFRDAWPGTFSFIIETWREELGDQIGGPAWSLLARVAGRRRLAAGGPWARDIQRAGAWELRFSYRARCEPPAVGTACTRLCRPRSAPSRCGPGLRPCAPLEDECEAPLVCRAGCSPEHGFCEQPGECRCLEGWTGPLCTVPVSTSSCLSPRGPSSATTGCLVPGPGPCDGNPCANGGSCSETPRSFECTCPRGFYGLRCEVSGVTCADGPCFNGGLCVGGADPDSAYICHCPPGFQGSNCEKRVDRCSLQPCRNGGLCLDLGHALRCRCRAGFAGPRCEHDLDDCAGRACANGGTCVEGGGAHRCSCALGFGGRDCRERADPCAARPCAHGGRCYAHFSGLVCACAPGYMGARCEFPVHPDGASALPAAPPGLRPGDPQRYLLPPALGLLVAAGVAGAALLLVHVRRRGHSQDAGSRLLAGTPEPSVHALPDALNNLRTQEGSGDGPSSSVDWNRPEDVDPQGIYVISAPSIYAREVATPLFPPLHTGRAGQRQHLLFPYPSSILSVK

[3] = target: T4, human DLL3 on CHO-K1 hDLL3 cells (human, UniProt Q9NYJ7 27-492); assay: FACS, CHO-K1 hDLL3 cells
T4 construct: also called human DLL3 recombinant cell line
T4 sequence: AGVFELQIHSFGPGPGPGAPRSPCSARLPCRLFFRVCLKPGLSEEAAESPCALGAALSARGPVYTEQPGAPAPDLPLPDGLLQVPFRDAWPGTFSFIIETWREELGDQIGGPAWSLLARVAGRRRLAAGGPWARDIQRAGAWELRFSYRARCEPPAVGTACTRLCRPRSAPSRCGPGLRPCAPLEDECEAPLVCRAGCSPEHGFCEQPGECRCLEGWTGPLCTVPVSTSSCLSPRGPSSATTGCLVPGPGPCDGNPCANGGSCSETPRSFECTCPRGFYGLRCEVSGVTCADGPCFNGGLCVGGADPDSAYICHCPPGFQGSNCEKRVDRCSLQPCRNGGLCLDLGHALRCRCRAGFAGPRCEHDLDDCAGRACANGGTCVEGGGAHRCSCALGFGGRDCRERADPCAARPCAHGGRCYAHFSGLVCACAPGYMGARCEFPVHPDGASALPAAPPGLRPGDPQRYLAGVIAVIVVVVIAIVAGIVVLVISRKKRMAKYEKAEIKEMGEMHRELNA

[4] = target: T5, mouse DLL3 on CHO K1-mDLL3 cells (mouse, UniProt O88516 33-490); assay: FACS, CHO K1-mDLL3 cells
T5 construct: also called mouse DLL3 recombinant cell line
T5 sequence: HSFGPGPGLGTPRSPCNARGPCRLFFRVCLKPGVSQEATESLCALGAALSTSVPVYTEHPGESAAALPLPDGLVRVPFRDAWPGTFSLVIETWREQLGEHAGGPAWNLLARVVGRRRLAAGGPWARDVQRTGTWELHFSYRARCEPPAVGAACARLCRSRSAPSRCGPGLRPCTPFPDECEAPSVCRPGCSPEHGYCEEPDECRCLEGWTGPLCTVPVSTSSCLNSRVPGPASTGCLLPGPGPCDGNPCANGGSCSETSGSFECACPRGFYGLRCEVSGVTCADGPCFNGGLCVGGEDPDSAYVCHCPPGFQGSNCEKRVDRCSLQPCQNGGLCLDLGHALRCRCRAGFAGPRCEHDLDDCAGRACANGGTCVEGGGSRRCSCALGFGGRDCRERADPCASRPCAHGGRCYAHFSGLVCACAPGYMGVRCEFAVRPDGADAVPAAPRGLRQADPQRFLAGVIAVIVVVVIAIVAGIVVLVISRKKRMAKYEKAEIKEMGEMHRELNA

Measured: binding result

B1: mab010 scFv-hFc (Fc fusion)
scFv (part 1 of 2): DIQMTQSPASLSVSVGETVTITCRASENINSNLAWYQQKQGKSPQLLVYAATNLADGVPSRFSGSGSGTQFSLKISGLQSEDFGSYYCQHFWGLPWTFGGGTKLEIR
scFv (part 2 of 2): QVQLQQSGAELARPGASMKLSCKASGYTFTSYGISWVKQITGQGLEWIGEIFPRSGNTYDNENFRGKATLTADKSSSTAYLEVRSLTSEDSAVYFCARTTVFAPYYFDYWGQGTTLTVSS
notes: human-murine chimeric scFv-hFc, VL-linker-VH-human IgG1 Fc; not shown: linker; Fc fragment of human IgG1
binds: human DLL3-his protein | [1]

B2: Hab009VL1aVH1-hFc (Fc fusion)
scFv (part 1 of 2): DIVMTQSPLSLPVTPGEPASISCRASQTISDYLHWYLQKPGQSPQLLIKYASQSISGVPDRFSGSGSGSDFTLKISRVEAEDVGVYYCQQGHSFPLTFGQGTKLEIK
scFv (part 2 of 2): EVQLVQSGAEVKKPGASVKVSCKASGYTFTSYWMHWVRQAPGQRLEWMGTIYPGNSDTRYNQKFKDRVTITADTSASTAYMELSSLRSEDTAVYYCTRSYDYGDLDYWGQGTTVTVSS
notes: humanized mab009, VL-linker-VH-human IgG1 Fc; not shown: linker; human IgG1 Fc fragment
binds: all assays above

B3: Hab009VL2aVH1-hFc (Fc fusion)
scFv (part 1 of 2): DIVMTQSPLSLPVTPGEPASISCRASQTISDYLHWYLQKPGQSPRLLIKYASQSISGVPDRFSGSGSGTDFTLKISRVEAEDVGVYYCQQGHSFPLTFGQGTKLEIK
scFv (part 2 of 2): EVQLVQSGAEVKKPGASVKVSCKASGYTFTSYWMHWVRQAPGQRLEWMGTIYPGNSDTRYNQKFKDRVTITADTSASTAYMELSSLRSEDTAVYYCTRSYDYGDLDYWGQGTTVTVSS
notes: as for B2
binds: all assays above

B4: mab009 scFv-hFc (Fc fusion)
scFv (part 1 of 2): DIVMTQSPATLSVTPGDRVSLSCRASQTISDYLHWYQQRSHESPRLLIKYASQSISGIPSRFSGSGSGSDFTLSINSVEPEDVGVYYCQNGHSFPLTFGAGTKLELK
scFv (part 2 of 2): EVQLQQSGTVLARPGASVKMSCKTSGYTFTSYWMHWVKQSPGQGLEWIGTIYPGNSDTRYNQKFKDKAYVTAVTSASTAYMELSSLTNEESAVYYCTRSYDYGDLDYWGQGTTLTVSS
notes: as for B1
binds: human DLL3-his protein

B5: Hab006VL1VH4-hFc (Fc fusion)
scFv (part 1 of 2): DIQMTQSPSSLSASVGDRVTITCRATKSISKYLAWYQQKPGKAPKLLIFSGSTLQSGVPSRFSGSGSGTDFTLTISSLQPEDFATYYCQQHHEYPYTFGGGTKVEIK
scFv (part 2 of 2): EVQLVQSGAEVKKPGASVKVSCKASGYTFTSYWMHWVRQAPGQRLEWMGVIDPSDSLANYNQEFKGRVTLTVDTSSSTAYMELSSLRSEDTAVYYCARDSTVVAPMDYWGQGTTVTVSS
notes: humanized mab006, VL-linker-VH-human IgG1 Fc; also called Hab006VL1VL4-hFc; not shown: linker; human IgG1 Fc fragment
binds: all assays above

B6: Hab006VL4VH1-hFc (Fc fusion)
scFv (part 1 of 2): DIVMTQSPDSLAVSLGERATINCRATKSISKYLAWYQQKPGQTNKLLIFSGSTLQSGVPDRFSGSGSGTDFTLTISSLQAEDVAVYYCQQHHEYPYTFGGGTKVEIK
scFv (part 2 of 2): EVQLVQSGAEVKKPGASVKVSCKASGYTFTSYWMHWVRQAPGQRLEWMGVIDPSDSLANYNQEFKGRVTITVDTSASTAYMELSSLRSEDTAVYYCARDSTVVAPMDYWGQGTTVTVSS
notes: humanized mab006, VL-linker-VH-human IgG1 Fc; also called Hab006VL4VL1-hFc; not shown: linker; human IgG1 Fc fragment
binds: all assays above

B7: Hab006VL4VH2-hFc (Fc fusion)
scFv (part 1 of 2): DIVMTQSPDSLAVSLGERATINCRATKSISKYLAWYQQKPGQTNKLLIFSGSTLQSGVPDRFSGSGSGTDFTLTISSLQAEDVAVYYCQQHHEYPYTFGGGTKVEIK
scFv (part 2 of 2): EVQLVQSGAEVKKPGASVKVSCKASGYTFTSYWMHWVRQAPGQRLEWMGVIDPSDSLANYNQEFKGRVTLTVDTSASTAYMELSSLRSEDTAVYYCARDSTVVAPMDYWGQGTTVTVSS
notes: humanized mab006, VL-linker-VH-human IgG1 Fc; also called Hab006VL4VL2-hFc; not shown: linker; human IgG1 Fc fragment
binds: all assays above

B8: Hab013VL2VH2a-hFc (Fc fusion)
scFv (part 1 of 2): EIVLTQSPATLSLSPGERATLSCRASKSVSTSGFSYMHWYQQKPGQPPRLLIYLASNLESGIPARFSGSGSGTDFTLTISSLEPEDFAVYYCQHSRELPFTFGQGTKLEIK
scFv (part 2 of 2): EVQLVQSGAEVKKPGSSVKVSCKASGYAFSNYWINWVRQAPGQGLEWMGQINPGDGDTIYNSKFKGRVTITADKSTSTAYMELSSLRSEDTAVYYCEREGRNYGDFAYWGQGTTVTVSS
notes: humanized mab013, VL-linker-VH-human IgG1 Fc; not shown: linker; human IgG1 Fc fragment
not listed: [1]
binds: all other assays above

B9: mab015 scFv-hFc (Fc fusion)
scFv (part 1 of 2): NIVMTQSPKSMSMSVGERVTLSCKASENVGTYVSWFQQKPEQSPKLLIYGASNRYTGVPDRFTGSGSATDFTLTISSVQAEDLADYHCGQFYSFPCTFGGGTKLEIK
scFv (part 2 of 2): EVKLEESGGGLVQPGGSMKLSCVASGITFSNFWMNWVRQSPEKGLEWVAQIRLKSDDYATHYAESVKGRFTISRDDSKGSVYLQMNNLRTEDTGIHYCTTGYYFDYWGQGTTLTVSS
notes: as for B1
binds: human DLL3-his protein | [1]

Source: patent publication EP4786492A1 (Simcere Zaiming Pharmaceutical Co., Ltd., dated 2026)
